The DeepSol protein solubility set

Assay: soluble on expression in E. coli; label from the status in PepcDB or PDB records

Row | Sequence | soluble on expression in E. coli
1 | MSLRGRTSTLKVAILCFEKDRPKLEALKEILGRSYEVEFVDYSKDVWDDVLQYDCIVAYLASGIVVRGICGRLRGKWKDPAVIVLDKPLKHAVVMLGGHHGGNEVAKKLEEAGLKAVITTAMEFTEGYSVGVGFRKNATADEILEAIAMALEEVGGRMEEIRVISTVDAKRDSAIVEVANRLKRPLIFVRAEEINSMDIRETKAVKIGVKNVAEACAIYASNSGELILPKRVYGGVTVAIAWEGHHHHHH | soluble
2 | MKKRYLVLTALLALSLAACSQEKTKNEDGETKTEQTAKADGTVGSKSQGAAQKKAEVVNKGDYYSIQGKYDEIIVANKHYPLSKDYNPGENPTAKAELVKLIKAMQEAGFPISDHYSGFRSYETQTKLYQDYVNQDGKAAADRYSARPGYSEHQTGLAFDVIGTDGDLVTEEKAAQWLLDHAADYGFVVRYLKGKEKETGYMAEEWHLRYVGKEAKEIAASGLSLEEYYGFEGGDYVD | not soluble
3 | MEKSAPSIILNHWCVTWQGHHFLCRNLSNIKILNRRNGYTTLDLPLTLGDLTQYRLAHGLSENLMALSPYSWTIPFLVSSSETPGIELLPKVINDFGTPLSLAIKTNLPSIPAHQLLFYIIFLRPSPLTSMSCYARPLSLASTPSLEHHHHHH | soluble
4 | MSLKLVAIAGSIGEQSYNRMLLQYIAKHFENLVDIELLNIDDVPVFNEDEDLSDNIKIQKIYQKIYGADGVILATPEHNHTVTAAIKNVIEWLSFKLHPFDGKPVWIVGASYFNQGSSRAQLHLKQILEAPGVNAIVMPGNEFLLRNAKEAFDAEGQLKDAGTVQFLEMVIQKFIKFVKVIDMLDAPDPKSYQDEDLESKGKVNTTIEGVDMHDEHWVEKAAQKVHAVDGSTYVKLDRGILTVDQLNYFLKTMPVELTYADDNNQFIYYNKNQPADKMLAPRNPGQAGDPLADVHPGRAVDRVKQVIHALRTGETDLVSMPVPGNGPDRHVMHYYKAMRDENGRYRGVNEWVTDIMPIIKYYLASTGEGHHHHHH | soluble
5 | MSRSQLTILTNICLIEDLETQRVVMQYRAPENNRWSGYAFPGGHVENDEAFAESVIREIYEETGLTIQNPQLVGIKNWPLDTGGRYIVICYKATEFSGTLQSSEEGEVSWVQKDQIPNLNLAYDMLPLMEMMEAPDKSEFFYPRRTEDDWEKKIF | soluble
6 | MGSDKIHHHHHHMPDKSLKKPFVHLIGAGPGDPGLITVKGRESLGRADVVIYDYLANDDLLRFARPDAELIYAGKIGGHHNREQWQINALLVEKALAGNVVARLKGGDSFVFGRGGEECEALVAAGIPFEIVPGVTAGIGVTAYAGIPLTHRGVTTSVTFVTGHEGHDKEVSQIDWEGLSLGSGTVVFYMGIKNLPQITANLMAHGRPPETPVALIRWGTRPEQEVLTGTLADIAEQARRTGFRAPAITVVGEVVRLREKLRWFDNRPLFGTSILVTRAADQAGEFGAMLGALGARVLECPTIAIVPPESWDNLDAAIASLDRFHWAVFTSVNAVRFFFERLAAAGKDSRALGNCRVCAVGPKTAAALAPFGIRPDLIPADYKGEGVVEVFRSEEIAGKRIIFPKGDRARDVIPQGLAELGGEVTAPVAYRNVTPDSLPAGVIAELEERRITCVTFTSSSTVENLAAILGENRFLHLLKGVTIAAIGPITARTCRELGLEVHVEPSKYTLAAMTDALVDFFSRSK | not soluble
7 | MIVLVTGATAGFGECITRRFIQQGHKVIATGRRQERLQELKDELGDNLYIAQLDVRNRAAIEEMLASLPAEWCNIDILVNNAGLALGMEPAHKASVEDWETMIDTNNKGLVYMTRAVLPGMVERNHGHIINIGSTAGSWPYAGGNVYGATKAFVRQFSLNLRTDLHGTAVRVTDIEPGLVGGTEFSNVRFKGDDGKAEKTYQNTVALTPEDVSEAVWWVSTLPAHVNINTLEMMPVTQSYAGLNVHRQ | soluble
8 | SDRFTSQSSFVVRSPKSQSSLNGLGAILQGTGFARAQDDIYTVGEYMRSRSSLDELRKILPVREFYETKGDAFSRFNGFGFRGEEEAFYQYYKNQ | not soluble
9 | MTGQAAGPAAGPAAGQATKHAGGRRPGETRTREAILTAARVCFAERGFDATSLRRIAETAGVDQSLVHHFYGTKENLFLQALELPGKIEEAITAAAQGGLDGIGERVVRAHLSVWDDVSSRPALMTMVRSAAIHRAAAARLRETATGILARALGGVITGEDAMLRTSMVATQLVGLAMMRYVAHLEPLASADTDTVARHYGRAVQAIVTDRD | soluble
10 | MVKSLQLAHQLKDKRILLIGGGEVGLTRLYKLMPTGCKLTLVSPDLHKSIIPKFGKFIQNKDQPDYREDAKRFINPNWDPTKNEIYEYIRSDFKDEYLDLENENDAWYIIMTCIPDHPESARIYHLCKERFGKQQLVNVADKPDLCDFYFGANLEIGDRLQILISTNGLSPRFGALVRDEIRNLFTQMGDLALEDAVVKLGELRRGIRLLAPDDKDVKYRMDWARRCTDLFGIQHCHNIDVKRLLDLFKVMFQEQNCSLQFPPRERLLSEYCSS | soluble
11 | MGSDKIHHHHHHMTQDFSEIFAKYEALVADVDNVFKRVQEAHPECVTCEKGCSDCCYAVFDLSLVEAMYLNHRFGQKFSFGPERSVIVERADETDRKLVKLKRQAHRDVQNGRDAEEILQDMGRVRVRCPLLGETDGCELYEYRPITCRLYGIPTAIGGKAHSCGKSAFLAGKQYPTVNIDRIHERLAQLSLEIRDAVHSRFSELHTVLVPVSMALLTTYDDAYLGAGATAKGNE | not soluble
12 | MIELDQTNIPKHVAIIMDGNGRWAKQKNKMRIFGHTNGVTAVRKAVAYARQIGVEVLTLYAFSSENWSRPEQEISALMSLFMQALDREVKKLHKNNICLKIIGDVSRFSETLQEKIKKAENLTEKNTALTLNIAANYGGCWDIIQAAKQIAEKVKKEEMSVSDINNSTFQHHLATQNAPPVDLLIRTSGEQRISNFLLWQIAYAELYFSDVLWPDFNQLEFNRAIASYQQRHRRFGGTE | not soluble
13 | MASEASVRLGVPPGRLWIQRPGIYEDEEGRTWVTVVVRFNPSRREWARASQGSRYEPSITVHLWQMAVHTRELLSSGQMPFSQLPAVWQLYPRRKYRAADSSFWEIADHGQIDSMEQLVLTYQPERKD | not soluble
14 | MKFTELTVKEFENFVQNPSLESHYFQVKENIATRESDGFQVVLLGVKDDDNRVIAASLFSKIPTMGSYVYYSNRGPVMDYSDLGLVDFYLKELDKYLHQHQCLYVKLDPYWLYQVYDKDINPLTEKNDALVNLFKSHGYDHHGFTTQYDSSSQVRWMGVLDLEGKTPASLRKEFDSQRKRNINKAINYGVKVRFLSKDEFGLFLDLYRETEARTGFASKTDDYFYNFIEHYGDKVLVPLAYIDLNEYIQHLQESLNDKENRRDDMMAKENKTDKQLKKIAELDKQIDHDKKELLQASELRQTDGEILNLASGVYFANAYEVNYFSGGSSEKYNQYMGPYAMHWHMINYCFDNGYDRYNFYGLSGDFTENSEDYGVYRFKRGFNVRIEELIGDFYKPINKVKYWLFNTLDRIRNKLKK | not soluble
15 | PSARDILQQGLDRLGSPEDLASRIDSTLLSPRATEEDVRNLVREASDYGFRCAVLTPVYTVKISGLAEKLGVKLCSVIGFPLGQAPLEVKLVEAQTVLEAGATELDVVPHLSLGPEAVYREVSGIVKLAKSYGAVVKVILEAPLWDDKTLSLLVDSSRRAGADIVKTSTGVYTKGGDPVTVFRLASLAKPLGMGVKASGGIRSGIDAVLAVGAGADIIGTSSAVKVLESFKSLV | soluble
16 | MGHHHHHHSHMPTDNDLKAAILELLRDLDVLLVAHFYQKDEIVELAHYTGDSLELAKIASQSDKNLIVFCGVHFMGESVKALAFDKQVIMPKLSCCSMARMIDSHYYDRSVHLLKECGVKEFYPITYINSNAEVKAKVAKDDGVVCTSRNASKIFNHALKQNKKIFFLPDKCLGENLALENGLKSAILGANSQEEIKNADVVCYNGFCSVHQLFKLEDIEFYRQKYPDILIAVHPECEPSVVSNADFSGSTSQIIEFVEKLSPNQKVAIGTESHLVNRLKAKRHHQNTFILSSTLALCPTMNETTLKDLFEVLKAYKNHRAYNTIELKDEVARLAKLALTKMMELS | not soluble
17 | MNTPSRTHLVIIPSYNPGPKVYETVQAARRYWNPVWVVVDGSTDGTWEGLLKLSAEDSGLVVLGMPANRGKGAAVLRGLLTSRRKGFTHALVMDSDGQHPADRIPEFMARSQEEPDAMILGVPVFDDSAPSLRVKGRRISNWWANLETLWCGIGDSLFGFGVYPIQALCVIMQDHQWMRRFDFDPEAAVRLCWAGIRPVNLPVPVYYPKPEEGGTSHFHYWRDNALLTWMHVRLMFGFLARLPILLARIVRRPEILEHHHHHH | not soluble
18 | MAHHHHHHMDGGVVKTILRKGEGGEENAPKKGNEVTVHYVGKLESSGKVFDSSRERNVPFKFHLGQGEVIKGWDICVASMTKNEKCSVRLDSKYGYGEEGCGESIPGNSVLIFEIELISFREAKKSIYDYTNEEKIQAAFDLKEEGNDFFKKNEIDEAISKYKEALDLFIHAEDWDGDLAEKKKNIEIICNLNLSTCYNKSKDFPNAIAHASKVLKIEKNNVKALYKLGVANMHFGFLEVAKENLYKAASLSPNNVEIRNSYDACLSKLKEARKRDKLTFGGMFDKGI | not soluble
19 | MQYINESATVSASNNVEKLRKQGLKIYNFGIGEPDFTTPEGIIDYAFEMAKQGKTHYTPSAGIMELREKIASKLKTRNRIDANAENVLVTPTKFGINLAMMVILNPGDEVIIPDPYYVSYPDIVKLAGGKPVPVRTTDDYDIDLDEMRKFVTPRTRAIILNNPNNPTGKVLSEKEIRDLVDFALENDIYIVSDEIYEDLIYEGSLYSPASMGKEAFEHTITLNGFSKGYAMTGWRIGYFVATEEIVEAANIIQQQTITCASSISQYAALRALDDNESPARMRSEFRKRRDLAYGILSESTDMKVHKPEGAFYMFPGYSKDIPSEKIAEMLLNQEHVVVTPGSAFGDRGRHHFRISFATSEDIIKEGLERLVKFMHTL | soluble
20 | MTKKQLHLVIVTGMSGAGKTVAIQSFEDLGYFTIDNMPPALLPKFLQLVEIKEDNPKLALVVDMRSRSFFSEIQAVLDELENQDGLDFKILFLDAADKELVARYKETRRSHPLAADGRILDGIKLERELLAPLKNMSQNVVDTTELTPRELRKTLAEQFSDQEQAQSFRIEVMSFGFKYGIPIDADLVFDVRFLPNPYYLPELRNQTGVDEPVYDYVMNHPESEDFYQHLLALIEPILPSYQKEGKSVLTIAMGCTGGQHRSVAFAKRLAQDLSKNWSVNEGHRDKDRRKETVNRS | not soluble
21 | MGSDKIHHHHHHMFENILWKMVKKRLIPKRKISRVHRSRKGVKRVVCVAFPLDQMFKSADDFIDALMEILQEDLPFVDLLIFPRLTGNLLAGVSPIRIENFEKLDPFYTDLLRYISKGLDVPIVAPGVETFRTSPDVLVIENGEVLHRYTLRERFAVADFGEWYAAVLRKEDTLSSKALRPLVEKNVFAFIHFDLETEENDWWKEKKGLWARSQSLEVFGIKVSPRGTFLGKTYRGKSYVSAPIPLTPNLTGFLRQDCGVKMSVDLELDLLKGKRHRIDTVKHILFRG | not soluble
22 | MGSDKIHHHHHHMQNPFTTTFSKTPEYTYIHTEKTEEILENFIYDNPSESVYKITGVRGSGKTVILAKVEEELRTNESRYINWLVFDVNPARDILGQIAAMLVKAGFGSQDKKTTGINLSATVMGTGGGIGYTAENNNNFFDIGVEVETMIQAAQKKGKKILIGIDEVSKSEEMIKFASEYGRWLRAGYPVYFVCTGLYENIQELSNVKNLTFFRRAATVKTEPLNMIRMTEMYKSKLDIDSNEAREMAKITKGYAYAFQELGVLYFKKKLDELLEDILPKLKAELFAYSYEKIWEEMTEMDRFLAGLLTEKEEYKREEVLKLMGEKSGSYSMYRDRLIKRGILNSRQGYISLALPYFGEYIKEYC | not soluble
